Source: paper PMC6614819 (Nucleic Acids Research, 2019)

What was measured:
Experiment in all cases: SEC
TmTsaD K166A = TmTsaD K166A (Thermotoga maritima, UniProt Q9WXZ2 1-327, K166A)
TmTsaD K213A = TmTsaD K213A (Thermotoga maritima, UniProt Q9WXZ2 1-327, K213A)
TmTsaD S134A = TmTsaD S134A (Thermotoga maritima, UniProt Q9WXZ2 1-327, S134A)
TmTsaD D165A = TmTsaD D165A (Thermotoga maritima, UniProt Q9WXZ2 1-327, D165A)
TmTsaD D182A = TmTsaD D182A (Thermotoga maritima, UniProt Q9WXZ2 1-327, D182A)
[1] = target: T. maritima TsaD (TmTsaD), wild type (Thermotoga maritima, UniProt Q9WXZ2 1-327)
Chain of T. maritima TsaD (TmTsaD), wild type (Q9WXZ2 whole entry): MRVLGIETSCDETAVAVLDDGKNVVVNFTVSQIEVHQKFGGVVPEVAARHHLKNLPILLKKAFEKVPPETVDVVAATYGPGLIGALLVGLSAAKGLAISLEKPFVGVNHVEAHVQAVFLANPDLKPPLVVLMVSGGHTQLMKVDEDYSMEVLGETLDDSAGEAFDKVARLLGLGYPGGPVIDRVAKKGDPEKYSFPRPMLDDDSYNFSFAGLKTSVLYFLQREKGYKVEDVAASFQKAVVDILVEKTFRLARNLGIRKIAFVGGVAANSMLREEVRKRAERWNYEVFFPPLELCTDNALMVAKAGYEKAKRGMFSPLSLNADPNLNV

Chain of TmTsaD K166A (Q9WXZ2 whole entry K166A): as the sequence (Q9WXZ2 whole entry) above, with K166A counted along it
Chain of TmTsaD D165A (Q9WXZ2 whole entry D165A): as the sequence (Q9WXZ2 whole entry) above, with D165A counted along it
Chain of TmTsaD S134A (Q9WXZ2 whole entry S134A): as the sequence (Q9WXZ2 whole entry) above, with S134A counted along it
Chain of TmTsaD D182A (Q9WXZ2 whole entry D182A): as the sequence (Q9WXZ2 whole entry) above, with D182A counted along it
Chain of TmTsaD K213A (Q9WXZ2 whole entry K213A): as the sequence (Q9WXZ2 whole entry) above, with K213A counted along it

| binding result (TmTsaD K166A) | binding result (TmTsaD K213A) | binding result (TmTsaD S134A) | binding result (TmTsaD D165A) | binding result (TmTsaD D182A) | binding result [1] | Binder |
| --- | --- | --- | --- | --- | --- | --- |
| binds | binds | binds | binds | binds |  | T. maritima TsaB (TmTsaB), wild type (natural protein, Thermotoga maritima) MNVLALDTSQRIRIGLRKGEDLFEISYTGEKKHAEILPVVVKKLLDELDLKVKDLDVVGVGIGPGGLTGLRVGIATVVGLVSPYDIPVAPLNSFEMTAKSCPADGVVLVARRARKGYHYCAVYLKDKGLNPLKEPSVVSDEELEEITKEFSPKIVLKDDLLISPAVLVEESERLFREKKTIHYYEIEPLYLQKSIAELNWEKKKRG |
|  |  |  |  |  | binds | TmTsaB deletion mutant lacking the C-terminal helix and tail Leu189-Gly206 (domain or fragment, Thermotoga maritima, UniProt Q9WZX7 1-188, looked up) MNVLALDTSQRIRIGLRKGEDLFEISYTGEKKHAEILPVVVKKLLDELDLKVKDLDVVGVGIGPGGLTGLRVGIATVVGLVSPYDIPVAPLNSFEMTAKSCPADGVVLVARRARKGYHYCAVYLKDKGLNPLKEPSVVSDEELEEITKEFSPKIVLKDDLLISPAVLVEESERLFREKKTIHYYEIEP |
